Test results as given in publication PMC8111768.

What was measured:
[1] = target: VIC16 REFORMab EFTEA (G236A/S267E/H268F/S324T/I332E) (mouse | human); experiment: SPR; details: remark: other sources report otherwise
[2] = target: VIC16 REFORMab KWES (printed K236W/E333S) (mouse | human); experiment: SPR; details: remark: other sources report otherwise
[3] = target: VIC16 REFORMab SDIEALGA (G236A/S239D/A330L/I332E) (mouse | human); experiment: SPR; details: remark: other sources report otherwise
[4] = target: T1, VIC16 human IgG1 (wild type VIC16-human IgG1 REFORMab) (mouse | human); experiment: SPR; details: remark: other sources report otherwise
[5] = target: T1, VIC16 human IgG1 (wild type VIC16-human …); experiment: BLI
[6] = target: VIC16 human IgG1 (wild type VIC16-human IgG1 REFORMab) (mouse | human); experiment: BLI; remark: listed apart in the source

Binder	Kd [4] [µM]	Kd [5] [µM]	further results
recombinant human FcγR2B, P31994 43-310 (receptor, modifications not checked) TPAAPPKAVLKLEPQWINVLQEDSVTLTCRGTHSPESDSIQWFHNGNLIPTHTQPSYRFKANNNDSGEYTCQTGQTSLSDPVHLTVLSEWLVLQTPHLEFQEGETIVLRCHSWKDKPLVKVTFFQNGKSKKFSRSDPNFSIPQANHSHSGDYHCTGNIGYTLYSSKPVTITVQAP	23		Kd [1]: 1.2 µM; Kd [2]: 224 µM; Kd [3]: 21 µM
recombinant murine FcγRIIb, P08101 30-330 (receptor, modifications not checked) THDLPKAVVKLEPPWIQVLKEDTVTLTCEGTHNPGNSSTQWFHNGRSIRSQVQASYTFKATVNDSGEYRCQMEQTRLSDPVDLGVISDWLLLQTPQLVFLEGETITLRCHSWRNKLLNRISFFHNEKSVRYHHYSSNFSIPKANHSHSGDYYCKGSLGRTLHQSKPVTITVQGPKSSRSLP		14.9	
recombinant murine FcγRIV, A0A0B4J1G0 21-249 (receptor, modifications not checked) GLQKAVVNLDPKWVRVLEEDSVTLRCQGTFSPEDNSIKWFHNESLIPHQDANYVIQSARVKDSGMYRCQTALSTISDPVQLEVHMGWLLLQTTKWLFQEGDPIHLRCHSWQNRPVRKVTYLQNGKGKKYFHENSELLIPKATHNDSGSYFCRGLIGHNNKSSASFRISLGDPGSPSMFPPWHQ		0.24	
recombinant human FcγR2A, P12318 34-317 (receptor, modifications not checked) QAAAPPKAVLKLEPPWINVLQEDSVTLTCQGARSPESDSIQWFHNGNLIPTHTQPSYRFKANNNDSGEYTCQTGQTSLSDPVHLTVLSEWLVLQTPHLEFQEGETIMLRCHSWKDKPLVKVTFFQNGKSQKFSHLDPTFSIPQANHSHSGDYHCTGNIGYTLFSSKPVTITVQVPSMGSSSPMG	30		
recombinant murine FcγRI (receptor) EVVNATKAVITLQPPWVSIFQKENVTLWCEGPHLPGDSSTQWFINGTAVQISTPSYSIPEASFQDSGEYRCQIGSSMPSDPVQLQIHNDWLLLQASRRVLTEGEPLALRCHGWKNKLVYNVVFYRNGKSFQFSSDSEVAILKTNLSHSGIYHCSGTGRHRYTSAGVSITVKELFTTPVLRASVSSPFPEGSLVTLNCETNLLLQRPGLQLHFSFYVGSKILEYRNTSSEYHIARAEREDAGFYWCEVATEDSSVLKRSPELELQVLGPQSSAP			Kd [6]: 0.08 µM
recombinant murine FcγRIII, P08508 31-261 (receptor, modifications not checked) ALPKAVVKLDPPWIQVLKEDMVTLMCEGTHNPGNSSTQWFHNGRSIRSQVQASYTFKATVNDSGEYRCQMEQTRLSDPVDLGVISDWLLLQTPQRVFLEGETITLRCHSWRNKLLNRISFFHNEKSVRYHHYKSNFSIPKANHSHSGDYYCKGSLGSTQHQSKPVTITVQDPATTSSISLVWYHT		2.83	
